Test results taken from US20190194326A1 (UBI US, published 2019).

Target: human CD4, membrane-bound on the surface of cells (human, UniProt P01730 26-458)
Experiment: cell-based or functional assay

B1: murine monoclonal antibody B4 (mAb B4) (antibody, V domains shown)
VH: QVQLQQSGPELVKPGASVRMSCKASGYTFTDYVIHWVKQRTGQGLEWIGEIYPGSGSAYSNAKFKDKATLTADKSSNTAYMQLSSLTSEDSAVYFCARRGNGTGFAYWGQGTLVTVSA
VL: DIVLTQSPASLAVSLGQRATISCKAGQSVDYDGDSYMNWYQQKPGQPPKLLIYVASNLESGIPARFSGSGSGTDFTLNIHPVEEEDAATYYCQQSYKDPLTFGAGTKLELK
0.074 µg/mL: IC50, HIV entry inhibition (PhenoSense), control virus JRFL
0.026 µg/mL: IC50, HIV entry inhibition (PhenoSense), isolate 92/RW/008, clade A | IC50, HIV entry inhibition (PhenoSense), isolate CMU06, clade E
0.014 µg/mL: IC50, HIV entry inhibition (PhenoSense), isolate 92/UG/038, clade D
0.015 µg/mL: IC50, HIV entry inhibition (PhenoSense), isolate 92/TH/020, clade EA | IC50, HIV entry inhibition (PhenoSense), isolate 92/UG/046, clade D | IC50, HIV entry inhibition (PhenoSense), isolate 92/UG/065, clade D | IC50, HIV entry inhibition (PhenoSense), isolate 93/UG/086, clade D | IC50, HIV entry inhibition (PhenoSense), isolate 94/UG/114, clade D | IC50, HIV entry inhibition (PhenoSense), isolate CC10, clade C
0.027 µg/mL: IC50, HIV entry inhibition (PhenoSense), isolate CG2, clade G
0.011 µg/mL: IC50, HIV entry inhibition (PhenoSense), isolate 92/UG/035, clade D | IC50, HIV entry inhibition (PhenoSense), isolate 93/UG/070, clade D | IC50, HIV entry inhibition (PhenoSense), isolate 21068, clade C | IC50, HIV entry inhibition (PhenoSense), isolate CA1, clade A | IC50, HIV entry inhibition (PhenoSense), isolate CMU02, clade EA
0.017 µg/mL: IC50, HIV entry inhibition (PhenoSense), isolate 92/TH/021, clade EA | IC50, HIV entry inhibition (PhenoSense), isolate 92/UG/021, clade D | IC50, HIV entry inhibition (PhenoSense), isolate 94/UG/117, clade D | IC50, HIV entry inhibition (PhenoSense), isolate CF8, clade F
0.021 µg/mL: IC50, HIV entry inhibition (PhenoSense), control virus 92HT594 | IC50, HIV entry inhibition (PhenoSense), isolate 92/TH/009, clade EA | IC50, HIV entry inhibition (PhenoSense), isolate 93/TH/305, clade E | IC50, HIV entry inhibition (PhenoSense), isolate 94/UG/103, clade A | IC50, HIV entry inhibition (PhenoSense), isolate 94/UG/105, clade D | IC50, HIV entry inhibition (PhenoSense), isolate CC2, clade C
0.02 µg/mL: IC50, HIV entry inhibition (PhenoSense), isolate 92/UG/053, clade D | IC50, HIV entry inhibition (PhenoSense), isolate 94/UG/118, clade D | IC50, HIV entry inhibition (PhenoSense), isolate 10362, clade C | IC50, HIV entry inhibition (PhenoSense), isolate 20635-4, clade C | IC50, HIV entry inhibition (PhenoSense), isolate CC9, clade C
0.024 µg/mL: IC50, HIV entry inhibition (PhenoSense), isolate 93/BR/020, clade F | IC50, HIV entry inhibition (PhenoSense), isolate CF3, clade F
0.034 µg/mL: IC50, HIV entry inhibition (PhenoSense), control virus JRCSF
0.016 µg/mL: IC50, HIV entry inhibition (PhenoSense), isolate 93/IN/101, clade C | IC50, HIV entry inhibition (PhenoSense), isolate 93/UG/067, clade D | IC50, HIV entry inhibition (PhenoSense), isolate 93/UG/082, clade D | IC50, HIV entry inhibition (PhenoSense), isolate CC1, clade C | IC50, HIV entry inhibition (PhenoSense), isolate CD1, clade D | IC50, HIV entry inhibition (PhenoSense), isolate CF2, clade F | IC50, HIV entry inhibition (PhenoSense), isolate CG3, clade G
0.018 µg/mL: IC50, HIV entry inhibition (PhenoSense), isolate 92/UG/001, clade D | IC50, HIV entry inhibition (PhenoSense), isolate 10215-6, clade C | IC50, HIV entry inhibition (PhenoSense), isolate CA2, clade A | IC50, HIV entry inhibition (PhenoSense), isolate CC6, clade C | IC50, HIV entry inhibition (PhenoSense), isolate CF5, clade F | IC50, HIV entry inhibition (PhenoSense), isolate CF6, clade F | IC50, HIV entry inhibition (PhenoSense), isolate CG1, clade G | IC50, HIV entry inhibition (PhenoSense), isolate CJ1, clade J | average IC50, HIV entry inhibition (PhenoSense), all viruses of the table
0.012 µg/mL: IC50, HIV entry inhibition (PhenoSense), isolate 92/TH/005, clade EA | IC50, HIV entry inhibition (PhenoSense), isolate 92/TH/022, clade EA | IC50, HIV entry inhibition (PhenoSense), isolate 93/UG/077, clade A | IC50, HIV entry inhibition (PhenoSense), isolate CC3, clade C
0.019 µg/mL: IC50, HIV entry inhibition (PhenoSense), isolate 92/UG/005, clade D | IC50, HIV entry inhibition (PhenoSense), isolate 93/RW/029, clade A | IC50, HIV entry inhibition (PhenoSense), isolate CA3, clade A | IC50, HIV entry inhibition (PhenoSense), isolate CC5, clade C | IC50, HIV entry inhibition (PhenoSense), isolate CC8, clade C | IC50, HIV entry inhibition (PhenoSense), isolate CF4, clade F | IC50, HIV entry inhibition (PhenoSense), isolate CF7, clade F | IC50, HIV entry inhibition (PhenoSense), isolate CJ2, clade J | IC50, HIV entry inhibition (PhenoSense), isolate MW/93/959, clade C
0.022 µg/mL: IC50, HIV entry inhibition (PhenoSense), isolate 92/TH/006, clade EA | IC50, HIV entry inhibition (PhenoSense), isolate 92/TH/019, clade EA
0.023 µg/mL: IC50, HIV entry inhibition (PhenoSense), isolate 93/TH/057, clade E
0.025 µg/mL: IC50, HIV entry inhibition (PhenoSense), isolate 11657-3, clade C
0.013 µg/mL: IC50, HIV entry inhibition (PhenoSense), isolate 92/TH/007, clade EA | IC50, HIV entry inhibition (PhenoSense), isolate 93/BR/019, clade BF | IC50, HIV entry inhibition (PhenoSense), isolate CC4, clade C | IC50, HIV entry inhibition (PhenoSense), isolate CC7, clade C | IC50, HIV entry inhibition (PhenoSense), isolate CG4, clade G
0.04 µg/mL: IC50, HIV entry inhibition (PhenoSense), isolate 92/UG/024, clade D
0.036 µg/mL: IC50, HIV entry inhibition (PhenoSense), isolate QZ4589, clade E?
0.01 µg/mL: IC50, HIV entry inhibition (PhenoSense), isolate 92/TH/024, clade EA | IC50, HIV entry inhibition (PhenoSense), isolate MW/93/960, clade C
0.055 µg/mL: IC50, HIV entry inhibition (PhenoSense), isolate 92/RW/024, clade A
